In the supplement of paper PMC11246515:
± gives the standard deviation of the averaged measurements.

Assay: total protein half-life in vivo (active degradation + dilution); higher = more stable protein
[1] = E. coli NCM3722 delta-clpP delta-lon delta-hslV, growth: N-lim chemostat, doubling time 6 h
[2] = E. coli NCM3722 delta-clpP, growth: N-lim chemostat, doubling time 6 h
[3] = E. coli NCM3722 delta-hslV, growth: N-lim chemostat, doubling time 6 h
[4] = E. coli NCM3722 delta-lon, growth: N-lim chemostat, doubling time 6 h
[5] = E. coli NCM3722 delta-smpB, growth: N-lim chemostat, doubling time 6 h
[6] = wild type E. coli NCM3722, growth: C-lim chemostat, doubling time 3 h
[7] = wild type E. coli NCM3722, growth: C-lim chemostat, doubling time 6 h
[8] = wild type E. coli NCM3722, growth: C-lim chemostat, doubling time 12 h
[9] = wild type E. coli NCM3722, growth: N-lim chemostat, doubling time 6 h
[10] = wild type E. coli NCM3722, growth: N-lim chemostat, doubling time 12 h
[11] = wild type E. coli NCM3722, growth: P-lim chemostat, doubling time 6 h
[12] = wild type E. coli NCM3722, growth: P-lim chemostat, doubling time 12 h

Sequence	total protein half-life in vivo [1]	total protein half-life in vivo [2]	total protein half-life in vivo [3]	total protein half-life in vivo [4]	total protein half-life in vivo [5]	total protein half-life in vivo [6]	total protein half-life in vivo [7]	total protein half-life in vivo [8]	total protein half-life in vivo [9]	total protein half-life in vivo [10]	total protein half-life in vivo [11]	total protein half-life in vivo [12]
MSDNDELQQIAHLRREYTKGGLRRRDLPADPLTLFERWLSQACEAKLADPTAMVVATVDEHGQPYQRIVLLKHYDEKGMVFYTNLGSRKAHQIENNPRVSLLFPWHTLERQVMVIGKAERLSTLEVMKYFHSRPRDSQIGAWVSKQSSRISARGILESKFLELKQKFQQGEVPLPSFWGGFRVSLEQIEFWQGGEHRLHDRFLYQRENDAWKIDRLAP [P0AFI7]	4.89 ± 0.34 h	4.63 ± 0.17 h	4.2 ± 0.047 h	4.66 ± 0.076 h	4.39 ± 0.58 h	3.53 ± 0.6 h	5.55 ± 0.32 h	10.8 ± 1.7 h	4.14 ± 0.077 h	8.66 ± 0.44 h	5.65 ± 0.12 h	11.2 ± 0.29 h
MKRPNFLFVMTDTQATNMVGCYSGKPLNTQNIDSLAAEGIRFNSAYTCSPVCTPARAGLFTGIYANQSGPWTNNVAPGKNISTMGRYFKDAGYHTCYIGKWHLDGHDYFGTGECPPEWDADYWFDGANYLSELTEKEISLWRNGLNSVEDLQANHIDETFTWAHRISNRAVDFLQQPARADEPFLMVVSYDEPHHPFTCPVEYLEKYADFYYELGEKAQDDLANKPEHHRLWAQAMPSPVGDDGLYHHPLYFACNDFVDDQIGRVINALTPEQRENTWVIYTSDHGEMMGAHKLISKGAAMYDDITRIPLIIRSPQGERRQVDTPVSHIDLLPTMMALADIEKPEILPGENILAVKEPRGVMVEFNRYEIEHDSFGGFIPVRCWVTDDFKLVLNLFTSDELYDRRNDPNEMHNLIDDIRFADVRSKMHDALLDYMDKIRDPFRSYQWSLRPWRKDARPRWMGAFRPRPQDGYSPVVRDYDTGLPTQGVKVEEKKQKF	5.62 h			3.1 h	2 h	2.28 h	4.35 ± 0.17 h	7.04 ± 0.66 h			4.04 h	8.72 ± 5.3 h
MSTIIMDLCSYTRLGLTGYLLSRGVKKREINDIETVDDLAIACDSQRPSVVFINEDCFIHDASNSQRIKLIINQHPNTLFIVFMAIANVHFDEYLLVRKNLLISSKSIKPESLDDILGDILKKETTITSFLNMPTLSLSRTESSMLRMWMAGQGTIQISDQMNIKAKTVSSHKGNIKRKIKTHNKQVIYHVVRLTDNVTNGIFVNMR [P0DMC9]	5.4 ± 0.66 h			1 ± 0.029 h	1.51 ± 0.036 h							
MSQLCPCGSAVEYSLCCHPYVSGEKVAPDPEHLMRSRYCAFVMQDADYLIKTWHPSCGAAALRAELMAGFAHTEWLGLTVFEHCWQDADNIGFVSFVARFTEGGKTGAIIERSRFLKENGQWYYIDGTRPQFGRNDPCPCGSGKKFKKCCGQ	5.73 ± 0.5 h		> 8 h		5.47 h		6.31 h		5.43 ± 0.68 h	8.52 ± 0.57 h	5.3 ± 0.3 h	
MTQDELKKAVGWAALQYVQPGTIVGVGTGSTAAHFIDALGTMKGQIEGAVSSSDASTEKLKSLGIHVFDLNEVDSLGIYVDGADEINGHMQMIKGGGAALTREKIIASVAEKFICIADASKQVDILGKFPLPVEVIPMARSAVARQLVKLGGRPEYRQGVVTDNGNVILDVHGMEILDPIAMENAINAIPGVVTVGLFANRGADVALIGTPDGVKTIVK [P0A7Z0]	4.63 ± 0.6 h	3.964 ± 0.033 h	4.16 ± 0.58 h	4.46 ± 0.19 h	4.21 ± 0.072 h	2.89 ± 0.12 h	5.36 ± 0.4 h	9.4966 ± 0.0081 h	4.01 ± 0.3 h	6.79 ± 0.038 h	5.1 ± 0.3 h	11.6 ± 0.7 h
MTTNTVSRKVAWLRVVTLAVAAFIFNTTEFVPVGLLSDIAQSFHMQTAQVGIMLTIYAWVVALMSLPFMLMTSQVERRKLLICLFVVFIASHVLSFLSWSFTVLVISRIGVAFAHAIFWSITASLAIRMAPAGKRAQALSLIATGTALAMVLGLPLGRIVGQYFGWRMTFFAIGIGALITLLCLIKLLPLLPSEHSGSLKSLPLLFRRPALMSIYLLTVVVVTAHYTAYSYIEPFVQNIAGFSANFATALLLLLGGAGIIGSVIFGKLGNQYASALVSTAIALLLVCLALLLPAANSEIHLGVLSIFWGIAMMIIGLGMQVKVLALAPDATDVAMALFSGIFNIGIGAGALVGNQVSLHWSMSMIGYVGAVPAFAALIWSIIIFRRWPVTLEEQTQ	5.1 ± 0.12 h	4.77 h	4.16 h		4.997 ± 0.0071 h				4.68 h	7.998 ± 0.022 h	5.12 ± 0.23 h	8.61 ± 0.96 h
MDSARALIARGWGVSLVSRCLRVSRAQLHVILRRTDDWMDGRRSRHTDDTDVLLRIHHVIGELPTYGYRRVWALLRRQAELDGMPAINAKRVYRIMRQNALLLERKPAVPPSKRAHTGRVAVKESNQRWCSDGFEFCCDNGERLRVTFALDCCDREALHWAVTTGGFNSETVQDVMLGAVERRFGNDLPSSPVEWLTDNGSCYRANETRQFARMLGLEPKNTAVRSPESNGIAESFVKTIKRDYISIMPKPDGLTAAKNLAEAFEHYNEWHPHSALGYRSPREYLRQRACNGLSDNRCLEI [P0CF53]	5.39 ± 1.7 h											
MAKIKGQVKWFNESKGFGFITPADGSKDVFVHFSAIQGNGFKTLAEGQNVEFEIQDGQKGPAAVNVTAI [P0A9Y6]	4.07 ± 0.35 h	3.26 ± 0.19 h	2.88 ± 0.095 h	3.98 ± 0.54 h	2.65 ± 0.03 h	2.24 ± 0.71 h	3.23 ± 0.29 h	5.61 ± 1.2 h	2.83 ± 0.21 h	3.96 ± 0.13 h	2.94 ± 0.28 h	5 ± 1.2 h
MNKTAIALLALLASSASLAATPWQKITQPVPGSAQSIGSFSNGCIVGADTLPIQSEHYQVMRTDQRRYFGHPDLVMFIQRLSSQVSNLGMGTVLIGDMGMPAGGRFNGGHASHQTGLDVDIFLQLPKTRWTSAQLLRPQALDLVSRDGKHVVSTLWKPEIFSLIKLAAQDKDVTRIFVNPAIKQQLCLDAGTDRDWLRKVRPWFQHRAHMHVRLRCPADSLECEDQPLPPSGDGCGAELQSWFEPPKPGTTKPEKKTPPPLPPSCQALLDEHVI [P0C0T5]			0.831 h			0.792 h						
MNDTSFENCIKCTVCTTACPVSRVNPGYPGPKQAGPDGERLRLKDGALYDEALKYCINCKRCEVACPSDVKIGDIIQRARAKYDTTRPSLRNFVLSHTDLMGSVSTPFAPIVNTATSLKPVRQLLDAALKIDHRRTLPKYSFGTFRRWYRSVAAQQAQYKDQVAFFHGCFVNYNHPQLGKDLIKVLNAMGTGVQLLSKEKCCGVPLIANGFTDKARKQAITNVESIREAVGVKGIPVIATSSTCTFALRDEYPEVLNVDNKGLRDHIELATRWLWRKLDEGKTLPLKPLPLKVVYHTPCHMEKMGWTLYTLELLRNIPGLELTVLDSQCCGIAGTYGFKKENYPTSQAIGAPLFRQIEESGADLVVTDCETCKWQIEMSTSLRCEHPITLLAQALA [P0A996]	6.38 h											
